# B1: SEQ ID NO: 1: highly conserved 87 aa micropeptide coded by the lncRNA TINCR; predicted ubiquitin-like protein (protein, listed as Homo sapiens)
# chain: MEGLRRGLSRWKRYHIKVHLADEALLLPLTVRPRDTLSDLRAQLVGQGVSSWKRAFYYNARRLDDHQTVRDARLQDGSVLLLVSDPR
# How the values were obtained:
# [1] = system: EMT regulators VIMENTIN, SLUG, SNAIL, N-CADHERIN, TWIST1, TWIST2, ZEB1 and ZEB2; test: Mesenchymal gene expression by qPCR in H10 SCC cell line; type: cell-based
# Description: (§1) FIG. 9. SEQ ID NO: 1 overexpression impairs invasiveness and reduces mesenchymal traits in A549 and H10 cell lines. Invasion of indicated cells was analyzed in matrigel-coated inserts. (A) The undersides of membrane inserts containing invaded cells were fixed and stained with crystal violet and photographed 24 h after plating. (B) Number of invasive cells was calculated using ImageJ software. Bars plots show relative number of cells invading the chamber. (C) Analysis of several mesenchymal genes by qPCR. mRNA expression is shown relative to the control. * P<0.05, **P<0.01 two-tailed t-test.
# (§2) Total RNA was extracted with Trizol® and treated with TURBO™ DNase following provider's recommendations. 1 μg of RNA was retrotranscribed using iScript™ cDNA Synthesis Kit (BioRad). Gene expression was analysed by quantitative real time PCR using PowerUp SYBR Green Master Mix (Thermo Fisher Scientific) in the 7900HT Fast Real-Time PCR System (Applied Biosystems). Cycle threshold (Ct) values were normalized to GAPDH.
# [2] = system: ubiquitylated proteins; test: Co-Immunoprecipitation using Anti-HA and Western Blot; type: binding; details: immunoprecipitation with Anti-HA
# Source text: (§3) FIG. 11. Micropeptide of sequence SEQ ID NO: 1 expression changes cell ubiquitylation pattern. (A) Co-Immunoprecipitation using Anti-HA and Western Blot experiments indicate the presence of ubiquitylated proteins in the pull down of SEQ ID NO: 1 expressing cells. (B) Analysis of ubiquitylated protein levels by Western Blot in SEQ ID NO: 1 or empty vector BxPC-3 infected cells after proteasome blocking treatment with MG132.
# [3] = system: A549 cells; test: Cell cycle analysis by flow cytometry; type: cell-based, human
# Source text: (§4) FIG. 8. SEQ ID NO: 1 overexpression reduces cell proliferation. A549 and H10 cells were transduced with an inducible lentivirus coding HA-SEQ ID NO: 1. SEQ ID NO: 1 expression was induced by doxycycline treatment for 14 days. (A) Growth curve of transduced cells over 14 days of SEQ ID NO:1 expression. (B) Cell cycle analysis by flow cytometry. Left, histogram plots. Right, quantification of the number of cells in every cell cycle phase. Graphs show the mean±SD, using at least 3 technical replicates. **** P<0.0001, two-tailed t-test.
# (§5) Micropeptide of SEQ ID NO: 1 expression was induced in BxPC3 cells by treatment with doxycycline (2 μg/ml) for 4 days. Cells were fixed using 100% ethanol at 4° C., stained with Propidium Iodide, and cell cycle was analysed by flow cytometry (LSR-Fortessa cytometer). Cell viability in micropeptide of SEQ ID NO: 1-expressing cells was evaluated using CellTiter-Glo 2.0 (Promega) following manufacturer's instructions.
# [4] = system: CDK inhibitors p27 and p21; test: p27 and p21 expression by qPCR and Western Blot in BxPC-3; type: cell-based; details: BxPC-3, doxycycline-induced expression
# Source text: FIG. 5. Micropeptide of sequence SEQ ID NO: 1 overexpression induces cell cycle arrest and cellular senescence. BxPC-3 cells were transduced with an inducible lentivirus coding HA-SEQ ID NO: 1. Micropeptide of sequence SEQ ID NO: 1 expression was induced by doxycycline treatment for 4 days. (A) Phase contrast images of SEQ ID NO:1-expressing cells and control cells. (B) Cell viability analysis by CellTiter-Glo assay. (C) Cell cycle analysis by flow cytometry. Left, histogram plots. Right, quantification of the number of cells in every cell cycle phase (D) Analysis of p27 and p21 expression by qPCR. (E) Western Blot of the indicated cells using anti-HA and anti-p21 antibodies. (F) Quantification of the number of SA-β-Gal positive cells in doxycycline-treated and untreated cells. (G) Representative pictures of the cell quantified in (F). Graphs show the mean±SEM, using at least 3 technical replicates. **P<0.01 ***P<0,001 **** P<0.0001, two-tailed t-test.
# as §2, with “GAPDH. […]” for “GAPDH.”
# [5] = system: protein ubiquitylation pattern in BxPC-3 infected cells; test: Ubiquitylated protein levels by Western Blot after MG132; type: cell-based; details: proteasome blocking with MG132
# Source text: as §3
# [6] = system: BxPC-3 cells; test: Drug sensitivity assay, cell viability by crystal violet; type: cell-based; set-up: cell death induced by Doxorubicin: dose or concentration left out as unconfirmed; details: days 2 to 4
# Description: FIG. 6. Micropeptide of sequence SEQ ID NO: 1 expression induces cell death upon cellularstress. SkBR-3, HPAF II, MIA PaCa-2 and BxPC-3 cells were infected with empty or SEQ ID NO: 1-HA retroviruses, and selected by puromycin. Micropeptide of sequence SEQ ID NO: 1 expression was analyzed by qPCR (A) and by Western blot (B). (C) Phase contrast images of the indicated cells 3 days after selection with puromycin. […] (E) BXPC-3 cells were infected with an inducible lentivirus encoding SEQ ID NO: 1-HA, and selected with Neomycin. Micropeptide of sequence SEQ ID NO: 1 expression was induced by doxycycline, and cells were treated with Doxorubicin or Actinomycin D. (E) Cell viability of the indicated cells measured by crystal violet staining. For drug sensitivity assays, doxycycline induction was coupled with Doxorubicin ([…]) or Actinomycin D (5 nM) (from days 2 to 4), and cell viability was measured by staining with crystal violet.
# [7] = system: H10 cells; test: Cell cycle analysis by flow cytometry; type: cell-based
# Source text: as §4, §5
# [8] = system: H10 cancer cells; test: Invasion assay (Boyden chamber, Matrigel); type: cell-based; details: H10, after 4 days of doxycycline induction, 24 h invasion
# Description: as §1
# BxPC-3, MDA-MB-231, A549 and H10 cell lines were trypsinized, counted, and 20.000 cells/well were seeded in triplicate in a Corning® cell culture insert (Boyden chamber) in which the porous membrane is coated with a layer of Matrigel® to mimic an extra cellular matrix (ECM). Cells were allowed to invade through the coated membrane for 24 hours in the cell incubator at 37° C. After the incubation time, culture inserts were fixed in methanol 5 minutes at RT and stained using Crystal Violet 20 minutes at RT. The excess of Crystal Violet staining was removed washing with PBS and pictures of the chambers were taken using an Olympus CeIIR microscope. Invading cells were counted using ImageJ and fold change was calculated normalizing to the control.
# [9] = system: Lung cancer cell line A549; test: Cell proliferation assay (growth curve, 14 days); type: cell-based, human; details: A549, monitored for 14 days, vs control vector
# Source text: as §4
# A549 and H10 cell lines were dissociated by trypsin digestion and seeded into 24-well cell culture plates at density 5×10^3 cells/well. Every two days, cells were dissociated from wells and counted using a Neubauer chamber. Cell growth curves were monitored for 14 days.
molecule,measurement,setting,value
B1,"expression of the EMT regulators VIMENTIN, SLUG, SNAIL, N-CADHERIN, TWIST1, TWIST2, ZEB1 and ZEB2",[1],represses the expression
same,binding to ubiquitylated proteins,[2],binds to ubiquitylated proteins
same,cells arrested in G1 phase,[3],increase in cells arrested in G1 phase
same,expression of the CDK inhibitors p27 and p21,[4],upregulation
same,protein ubiquitylation pattern,[5],alters protein ubiquitylation pattern
same,cell death induced by Actinomycin D,"[6]; BxPC-3, doxycycline induction coupled with Actinomycin D (5 nM)",sensitizes to cell death
same,cell death induced by Doxorubicin,"[6]; BxPC-3, doxycycline induction coupled with Doxorubicin",sensitizes to cell death
same,cells arrested in G1 phase,[7],increase in cells arrested in G1 phase
same,invasion,[8],significant decrease in invasion
same,growth rate,[9],consistently lower growth rate

# Reference: patent US11858972B2, “Micropeptides and uses thereof” (FUNDACIÓ PRIVADA INSTITUT D'INVESTIGACIÓ ONCOLÒGICA DE VALL …, priority 2018, dated 2024)
